Measurements as given in article PMC8660775.

T1: Adiponectin receptor 1 (ADIPOR1), endogenous in iPSC-derived RPE (human (endogenous in iPSC-derived RPE)) (UniProt Q96A54)
T1 sequence: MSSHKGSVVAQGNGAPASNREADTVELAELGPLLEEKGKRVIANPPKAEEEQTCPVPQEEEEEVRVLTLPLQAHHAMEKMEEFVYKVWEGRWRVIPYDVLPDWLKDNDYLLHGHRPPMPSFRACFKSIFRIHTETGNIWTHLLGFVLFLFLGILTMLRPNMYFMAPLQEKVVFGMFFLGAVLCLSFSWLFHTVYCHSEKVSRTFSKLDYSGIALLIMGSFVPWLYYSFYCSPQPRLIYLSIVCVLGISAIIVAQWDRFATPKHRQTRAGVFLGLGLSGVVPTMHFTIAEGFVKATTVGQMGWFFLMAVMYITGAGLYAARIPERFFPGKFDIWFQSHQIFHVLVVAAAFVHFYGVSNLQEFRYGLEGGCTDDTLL


Biological target: T1, Adiponectin receptor 1 (ADIPOR1), endogenous in iPSC-derived RPE (human (endogenous in iPSC-derived RPE))

pAMPK (pT172) levels by ELISA in healthy-iRPE in serum-deprived medium, 0.2 µg/mL gCTRP5 for 30 min [% decrease] | pAMPK (pT172) levels by ELISA in healthy-iRPE in serum-free medium, recombinant full-length CTRP5 at 0.2, 2 and 25 µg/mL [% reduction] | Molecule
20 |  | recombinant CTRP5 globular domain (domain or fragment)
 | 50 | recombinant CTRP5 full length (ligand) SPPLDDNKIPSLCPGHPGLPGTPGHHGSQGLPGRDGRDGRDGAPGAPGEKGEGGRPGLPGPRGDPGPRGEAGPAGPTGPAGECSVPPRSAFSAKRSESRVPPPSDAPLPFDRVLVNEQGHYDAVTGKFTCQVPGVYYFAVHATVYRASLQFDLVKNGESIASFFQFFGGWPKPASLSGGAMVRLEPEDQVWVQVGVGDYIGIYASIKTDSTFSGFLVYSDWHSSPVFA
